Laboratory results taken from patent publication US20260132183A1 (ACADEMISCH ZIEKENHUIS LEIDEN H O D N LUMC, published 2026).

T1: MAGE-A1 peptide on HLA-A*02:01 (human)
T1 peptide: KVLEYVIKV

T2: MAGE-A1 peptide on HLA-A*03:01 (human)
T2 peptide: SLFRAVITK

T3: MAGE-A1 peptide on HLA-C*07:02 (human)
T3 peptide: VRFFFPSL

T4: MAGE-A9 peptide on HLA-A*01:01 (human)
T4 peptide: YVGKEHMFY

T5: MAGE-A1 peptide on HLA-B*07:02 (human)
T5 peptide: RVRFFFPSL

T6: MAGE-A3 peptide on HLA-B*35:01 (human)
T6 peptide: EVDPIGHLY

T7: MAGE-A6 peptide on HLA-B*35:01 (human)
T7 peptide: EVDPIGHVY


Molecular target: T1, MAGE-A1 peptide on HLA-A*02:01
Test: multimer staining

Row | Binder | binding result
1 | TCR CT27.4F7 (TCR, V domains shown) Valpha: GEDVEQSLFLSVREGDSSVINCTYTDSSSTYLYWYKQEPGAGLQLLTYIFSNMDMKQDQRLTVLLNKKDKHLSLRIADTQTGDSAIYFCAESIDARLMFGDGTQLVVKP Vbeta: DSGVTQTPKHLITATGQRVTLRCSPRSGDLSVYWYQQSLDQGLQFLIQYYNGEERAKGNILERFSAQQFPDLHSELNLSSLELGDSALYFCASSPGGDTQYFGPGTRLTVL | recognises

Molecular target: T2, MAGE-A1 peptide on HLA-A*03:01
Test: multimer staining

Row | Binder | binding result
2 | TCR CT23.3H4 (TCR, V domains shown) Valpha: RKEVEQDPGPFNVPEGATVAFNCTYSNSASQSFFWYRQDCRKEPKLLMSVYSSGNEDGRFTAQLNRASQYISLLIRDSKLSDSATYLCVVNFNYGQNFVFGPGTRLSVLP Vbeta: DTGVSQDPRHKITKRGQNVTFRCDPISEHNRLYWYRQTLGQGPEFLTYFQNEAQLEKSRLLSDRFSAERPKGSFSTLEIQRTEQGDSAMYLCASSPLGVNTEAFFGQGTRLTVV | recognises

Molecular target: T3, MAGE-A1 peptide on HLA-C*07:02
Test: multimer staining

Row | Binder | binding result
3 | TCR CT31.10C1 (TCR, V domains shown) Valpha: DQQVKQNSPSLSVQEGRISILNCDYTNSMFDYFLWYKKYPAEGPTFLISISSIKDKNEDGRFTVFLNKSAKHLSLHIVPSQPGDSAVYFCAASAQNNDMRFGAGTRLTVKP Vbeta: DAGVIQSPRHEVTEMGQEVTLRCKPISGHDYLFWYRQTMMRGLELLIYFNNNVPIDDSGMPEDRFSAKMPNASFSTLKIQPSEPRDSAVYFCASGTGWDTEAFFGQGTRLTVV | recognises

Molecular target: T4, MAGE-A9 peptide on HLA-A*01:01
Test: multimer staining

Row | Binder | binding result
4 | TCR CT43.2D8 (TCR, V domains shown) Valpha: EDKVVQSPLSLVVHEGDTVTLNCSYEVTNFRSLLWYKQEKKAPTFLFMLTSSGIEKKSGRLSSILDKKELSSILNITATQTGDSAIYLCAVEGWDDKIIFGKGTRLHILP Vbeta: DAGITQSPRHKVTETGTPVTLRCHQTENHRYMYWYRQDPGHGLRLIHYSYGVKDTDKGEVSDGYSVSRSKTEDFLLTLESATSSQTSVYFCAISEGRNEQYFGPGTRLTVT | recognises

Molecular target: T5, MAGE-A1 peptide on HLA-B*07:02
Test: multimer staining

Row | Binder | binding result
5 | TCR CT12.3G2 (TCR, V domains shown) Valpha: AQKVTQAQTEISVVEKEDVTLDCVYETRDTTYYLFWYKQPPSGELVFLIRRNSFDEQNEISGRYSWNFQKSTSSFNFTITASQVVDSAVYFCALSEAYSGAGSYQLTFGKGTKLSVIP Vbeta: EPEVTQTPSHQVTQMGQEVILRCVPISNHLYFYWYRQILGQKVEFLVSFYNNEISEKSEIFDDQFSVERPDGSNFTLKIRSTKLEDSAMYFCASSEALQPQHFGDGTRLSIL | recognises

Molecular target: T6, MAGE-A3 peptide on HLA-B*35:01
Test: multimer staining

Row | Binder | binding result
6 | TCR CT23.2H9 (TCR, V domains shown) Valpha: KDQVFQPSTVASSEGAVVEIFCNHSVSNAYNFFWYLHFPGCAPRLLVKGSKPSQQGRYNMTYERFSSSLLILQVREADAAVYYCAVPNNYGQNFVFGPGTRLSVLP Vbeta: NAGVTQTPKFRILKIGQSMTLQCTQDMNHNYMYWYRQDPGMGLKLIYYSVGAGITDKGEVPNGYNVSRSTTEDFPLRLELAAPSQTSVYFCASSYSGQGLYEQYFGPGTRLTVT | recognises

Molecular target: T7, MAGE-A6 peptide on HLA-B*35:01
Test: cytokine release

Row | Binder | binding result
7 | TCR CT23.2H9 (TCR, V domains shown) Valpha: KDQVFQPSTVASSEGAVVEIFCNHSVSNAYNFFWYLHFPGCAPRLLVKGSKPSQQGRYNMTYERFSSSLLILQVREADAAVYYCAVPNNYGQNFVFGPGTRLSVLP Vbeta: NAGVTQTPKFRILKIGQSMTLQCTQDMNHNYMYWYRQDPGMGLKLIYYSVGAGITDKGEVPNGYNVSRSTTEDFPLRLELAAPSQTSVYFCASSYSGQGLYEQYFGPGTRLTVT | recognises

molecular target: T8, HLA-A*01:01 with beta-2 microglobulin (human); test: pHLA monomer refolding
T8 construct: also called HLA-A1

Row | Binder | binding result
8 | YVGKEHMFY (synthetic peptide) [YVGKEHMFY (MAGE-A9 peptide)] | binds
9 | LTQDLVQEKYLEY (synthetic peptide) [LTQDLVQEKYLEY (MAGE-A1 peptide)] | binds

molecular target: T9, HLA-C*07:02 with beta-2 microglobulin (human); test: pHLA monomer refolding
T9 construct: also called HLA-C7; C702

Row | Binder | binding result
10 | VRFFFPSL (synthetic peptide) [VRFFFPSL (MAGE-A1 peptide)] | binds

molecular target: T10, HLA-A*03:01 with beta-2 microglobulin (human); test: pHLA monomer refolding
T10 construct: also called HLA-A3

Row | Binder | binding result
11 | RVRFFFPSLR (synthetic peptide) [RVRFFFPSLR (MAGE-A1 peptide)] | binds
12 | SMLGDGHSMPK (synthetic peptide) [SMLGDGHSMPK (MAGE-A9 peptide)] | binds
13 | RIFPKIMPK (synthetic peptide) [RIFPKIMPK (SSX4 peptide)] | binds
14 | ATLPPFMCNK (synthetic peptide) [ATLPPFMCNK (SSX2 peptide)] | binds
15 | RVRIAYPSLR (synthetic peptide) [RVRIAYPSLR (MAGE-A4 peptide)] | binds
16 | RCFPVIFGK (synthetic peptide) [RCFPVIFGK (MAGE-A4 peptide)] | binds
17 | IVLGVILTK (synthetic peptide) [IVLGVILTK (MAGE-A9 peptide)] | binds
18 | SVMGVYVGK (synthetic peptide) [SVMGVYVGK (MAGE-A9 peptide)] | binds

molecular target: T11, HLA-B*07:02 with beta-2 microglobulin (human); test: pHLA monomer refolding
T11 construct: also called HLA-B7

Row | Binder | binding result
19 | RVRIAYPSL (synthetic peptide) [RVRIAYPSL (MAGE-A4 peptide)] | binds
20 | FPSLREAAL (synthetic peptide) [FPSLREAAL (MAGE-A1 peptide)] | binds
21 | YPSLREAAL (synthetic peptide) [YPSLREAAL (MAGE-A4 peptide)] | binds
22 | RPADLTRVIM (synthetic peptide) [RPADLTRVIM (MAGE-A11 peptide)] | binds
23 | RVRFFFPSL (synthetic peptide) [RVRFFFPSL (MAGE-A1 peptide)] | binds

molecular target: T12, HLA-A*02:01 with beta-2 microglobulin (human); test: pHLA monomer refolding
T12 construct: also called HLA-A2

Row | binding result | Binder
24 | binds | GVYDGREHTV (synthetic peptide) [GVYDGREHTV (MAGE-A4 peptide)]
25 | binds | KVLEYVIKV (synthetic peptide) [KVLEYVIKV (MAGE-A1 peptide)]
26 | binds | ALREEEEGV (synthetic peptide) [ALREEEEGV (MAGE-A1 peptide)]
27 | binds | VIWEVLNAV (synthetic peptide) [VIWEVLNAV (MAGE-C2 peptide)]
28 | binds | TLDEKVAEL (synthetic peptide) [TLDEKVAEL (MAGE-C2 peptide)]
29 | binds | KASEKIFYV (synthetic peptide) [KASEKIFYV (SSX2 peptide)]
30 | binds | FVYGEPREL (synthetic peptide) [FVYGEPREL (MAGE-C2 peptide)]
31 | binds | KIWEELSVLEV (synthetic peptide) [KIWEELSVLEV (MAGE-A3/A6 peptide)]
32 | binds | ALKDVEERV (synthetic peptide) [ALKDVEERV (MAGE-C2 peptide)]
33 | binds | KVLEFLAKL (synthetic peptide) [KVLEFLAKL (MAGE-C2 peptide)]

The remaining lines, values behind:

Row | Binder | binding result
34 | GVYAGREHFV (synthetic peptide) [GVYAGREHFV (MAGE-C2 peptide)] | binds
35 | VLGEEQEGV (synthetic peptide) [VLGEEQEGV (MAGE-A9 peptide)] | binds
36 | ALIEVGPDHFC (synthetic peptide) [ALIEVGPDHFC (MAGE-C2 peptide)] | binds
